*1 amine or outer side, *2 acyl side, *3 side chain or, on linkers, in order; H or OH if unused. Side-chain parts run from the residue outwards. The star is where a group is joined. C18 diacid = O=C(O)CCCCCCCCCCCCCCCCC(=O)*; γGlu = O=C(O)[C@H](CCC(=O)[*:2])N[*:1]; Isovaleryl = CC(C)CC(=O)*; AEEA = NCCOCCOCC(=O)O
T1: human neuropeptide Y2 receptor (human, UniProt P49146 1-381)
T1 sequence (looked up): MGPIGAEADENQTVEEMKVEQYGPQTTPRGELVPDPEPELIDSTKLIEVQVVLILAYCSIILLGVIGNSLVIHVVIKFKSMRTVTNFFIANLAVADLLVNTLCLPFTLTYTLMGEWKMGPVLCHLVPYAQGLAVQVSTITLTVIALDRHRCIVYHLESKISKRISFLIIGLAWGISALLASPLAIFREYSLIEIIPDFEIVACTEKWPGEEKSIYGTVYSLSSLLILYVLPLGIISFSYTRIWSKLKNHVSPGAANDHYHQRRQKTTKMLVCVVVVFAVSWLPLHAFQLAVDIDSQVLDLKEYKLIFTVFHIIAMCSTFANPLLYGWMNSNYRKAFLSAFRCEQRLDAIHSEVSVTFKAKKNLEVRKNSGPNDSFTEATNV

T2: human NPY5 receptor (human, UniProt Q15761 1-445)
T2 sequence (looked up): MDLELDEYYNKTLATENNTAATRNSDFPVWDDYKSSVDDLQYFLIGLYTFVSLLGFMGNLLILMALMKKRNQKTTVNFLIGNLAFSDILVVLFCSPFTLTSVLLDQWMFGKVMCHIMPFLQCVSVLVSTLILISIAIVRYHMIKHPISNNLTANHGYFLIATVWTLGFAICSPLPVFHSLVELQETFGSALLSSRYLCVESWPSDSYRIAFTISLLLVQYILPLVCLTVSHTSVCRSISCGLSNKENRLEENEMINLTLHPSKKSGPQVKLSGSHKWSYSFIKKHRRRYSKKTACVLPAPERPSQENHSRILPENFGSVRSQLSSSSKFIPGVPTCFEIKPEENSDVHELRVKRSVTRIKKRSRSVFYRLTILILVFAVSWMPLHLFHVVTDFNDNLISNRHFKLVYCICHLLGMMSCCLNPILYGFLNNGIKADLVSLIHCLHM

T3: human NPY1 receptor (human, UniProt P25929 1-384)
T3 sequence (looked up): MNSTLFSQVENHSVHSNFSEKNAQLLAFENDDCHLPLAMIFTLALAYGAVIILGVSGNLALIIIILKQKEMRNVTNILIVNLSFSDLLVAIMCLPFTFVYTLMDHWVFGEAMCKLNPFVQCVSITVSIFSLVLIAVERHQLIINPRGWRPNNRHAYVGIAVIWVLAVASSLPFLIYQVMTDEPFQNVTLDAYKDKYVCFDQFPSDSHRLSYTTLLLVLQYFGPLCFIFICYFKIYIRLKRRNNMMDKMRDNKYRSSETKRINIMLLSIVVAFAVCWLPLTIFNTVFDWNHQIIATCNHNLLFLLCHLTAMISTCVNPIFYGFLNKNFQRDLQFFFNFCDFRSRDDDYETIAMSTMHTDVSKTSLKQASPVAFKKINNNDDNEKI


Key:
[1] = molecular target: T1, human neuropeptide Y2 receptor; experiment: cell-based or functional assay
human NPY4 receptor = human NPY4 receptor (human, UniProt P50391 1-375); experiment: cell-based or functional assay
human NPY5 receptor = molecular target: T2, human NPY5 receptor; experiment: cell-based or functional assay
human NPY1 receptor = molecular target: T3, human NPY1 receptor; experiment: cell-based or functional assay
[2] = molecular target: T1, human neuropeptide Y2 receptor; experiment: radioligand competition (125I-PYY(1-36)), hNPY2R membranes
Summary of the method: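 Commercial human Y2 receptor membranes (0.5 μg protein/well) were incubated with peptide for 2 h at room temperature in 50 mM HEPES, 5 mM MgCl₂, 1 mM CaCl₂, pH 7.4, with 0.2% ovalbumin. Bound radioligand was separated on PEI-soaked GF/C filters and counted by scintillation, and IC₅₀ came from nonlinear sigmoidal regression.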

Sequence of human NPY4 receptor (P50391 whole entry): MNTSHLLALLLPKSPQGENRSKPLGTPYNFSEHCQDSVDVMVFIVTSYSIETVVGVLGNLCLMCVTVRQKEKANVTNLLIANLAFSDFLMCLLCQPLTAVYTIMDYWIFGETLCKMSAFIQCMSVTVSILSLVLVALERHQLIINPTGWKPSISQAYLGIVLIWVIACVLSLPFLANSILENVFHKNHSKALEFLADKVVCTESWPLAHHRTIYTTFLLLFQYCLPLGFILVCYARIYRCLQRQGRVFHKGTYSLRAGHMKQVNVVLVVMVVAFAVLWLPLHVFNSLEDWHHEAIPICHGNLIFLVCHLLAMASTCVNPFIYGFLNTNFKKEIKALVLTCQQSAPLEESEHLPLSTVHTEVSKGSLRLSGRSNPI

| Binder | EC50 (HTRF cAMP Gi assay) [1] [nM] | EC50 (HTRF cAMP Gi assay) (human NPY4 receptor) [nM] | EC50 (HTRF cAMP Gi assay) (human NPY5 receptor) [nM] | EC50 (HTRF cAMP Gi assay) (human NPY1 receptor) [nM] | Ki [2] [nM] |
| --- | --- | --- | --- | --- | --- |
| Isovaleryl-APEK([AEEA-AEEA-γGlu-C18 diacid])PEEDASPEELQRYYVSLRHYYNWLTRQRY-NH2 (SMILES CC(C)CC(=O)N[C@@H](C)C(=O)N1CCC[C@H]1C(=O)N[C@@H](CCC(=O)O)C(=O)N[C@@H](CCCCNC(=O)COCCOCCNC(=O)COCCOCCNC(=O)CC[C@H](NC(=O)CCCCCCCCCCCCCCCCC(=O)O)C(=O)O)C(=O)N1CCC[C@H]1C(=O)N[C@@H](CCC(=O)O)C(=O)N[C@@H](CCC(=O)O)C(=O)N[C@@H](CC(=O)O)C(=O)N[C@@H](C)C(=O)N[C@@H](CO)C(=O)N1CCC[C@H]1C(=O)N[C@@H](CCC(=O)O)C(=O)N[C@@H](CCC(=O)O)C(=O)N[C@@H](CC(C)C)C(=O)N[C@@H](CCC(N)=O)C(=O)N[C@@H](CCCNC(=N)N)C(=O)N[C@@H](Cc1ccc(O)cc1)C(=O)N[C@@H](Cc1ccc(O)cc1)C(=O)N[C@H](C(=O)N[C@@H](CO)C(=O)N[C@@H](CC(C)C)C(=O)N[C@@H](CCCNC(=N)N)C(=O)N[C@@H](Cc1c[nH]cn1)C(=O)N[C@@H](Cc1ccc(O)cc1)C(=O)N[C@@H](Cc1ccc(O)cc1)C(=O)N[C@@H](CC(N)=O)C(=O)N[C@@H](Cc1c[nH]c2ccccc12)C(=O)N[C@@H](CC(C)C)C(=O)N[C@H](C(=O)N[C@@H](CCCNC(=N)N)C(=O)N[C@@H](CCC(N)=O)C(=O)N[C@@H](CCCNC(=N)N)C(=O)N[C@@H](Cc1ccc(O)cc1)C(N)=O)[C@@H](C)O)C(C)C) [Compound 54] | 0.131 | > 5000 | > 5000 | > 5000 | 0.95 |
| Isovaleryl-APEK([AEEA-AEEA-γGlu-C18 diacid])PEEDAEPEELQQYYVSLRHYYNWLTRQRY-NH2 (SMILES CC(C)CC(=O)N[C@@H](C)C(=O)N1CCC[C@H]1C(=O)N[C@@H](CCC(=O)O)C(=O)N[C@@H](CCCCNC(=O)COCCOCCNC(=O)COCCOCCNC(=O)CC[C@H](NC(=O)CCCCCCCCCCCCCCCCC(=O)O)C(=O)O)C(=O)N1CCC[C@H]1C(=O)N[C@@H](CCC(=O)O)C(=O)N[C@@H](CCC(=O)O)C(=O)N[C@@H](CC(=O)O)C(=O)N[C@@H](C)C(=O)N[C@@H](CCC(=O)O)C(=O)N1CCC[C@H]1C(=O)N[C@@H](CCC(=O)O)C(=O)N[C@@H](CCC(=O)O)C(=O)N[C@@H](CC(C)C)C(=O)N[C@@H](CCC(N)=O)C(=O)N[C@@H](CCC(N)=O)C(=O)N[C@@H](Cc1ccc(O)cc1)C(=O)N[C@@H](Cc1ccc(O)cc1)C(=O)N[C@H](C(=O)N[C@@H](CO)C(=O)N[C@@H](CC(C)C)C(=O)N[C@@H](CCCNC(=N)N)C(=O)N[C@@H](Cc1c[nH]cn1)C(=O)N[C@@H](Cc1ccc(O)cc1)C(=O)N[C@@H](Cc1ccc(O)cc1)C(=O)N[C@@H](CC(N)=O)C(=O)N[C@@H](Cc1c[nH]c2ccccc12)C(=O)N[C@@H](CC(C)C)C(=O)N[C@H](C(=O)N[C@@H](CCCNC(=N)N)C(=O)N[C@@H](CCC(N)=O)C(=O)N[C@@H](CCCNC(=N)N)C(=O)N[C@@H](Cc1ccc(O)cc1)C(N)=O)[C@@H](C)O)C(C)C) [Compound 18] | 0.167 | > 5000 | > 5000 | > 5000 | 3.71 |
| Isovaleryl-APEK([AEEA-AEEA-γGlu-C18 diacid])PEEDASPEEIQQYYVSLRHYYNWLTRQRY-NH2 (SMILES CC[C@H](C)[C@H](NC(=O)[C@H](CCC(=O)O)NC(=O)[C@H](CCC(=O)O)NC(=O)[C@@H]1CCCN1C(=O)[C@H](CO)NC(=O)[C@H](C)NC(=O)[C@H](CC(=O)O)NC(=O)[C@H](CCC(=O)O)NC(=O)[C@H](CCC(=O)O)NC(=O)[C@@H]1CCCN1C(=O)[C@H](CCCCNC(=O)COCCOCCNC(=O)COCCOCCNC(=O)CC[C@H](NC(=O)CCCCCCCCCCCCCCCCC(=O)O)C(=O)O)NC(=O)[C@H](CCC(=O)O)NC(=O)[C@@H]1CCCN1C(=O)[C@H](C)NC(=O)CC(C)C)C(=O)N[C@@H](CCC(N)=O)C(=O)N[C@@H](CCC(N)=O)C(=O)N[C@@H](Cc1ccc(O)cc1)C(=O)N[C@@H](Cc1ccc(O)cc1)C(=O)N[C@H](C(=O)N[C@@H](CO)C(=O)N[C@@H](CC(C)C)C(=O)N[C@@H](CCCNC(=N)N)C(=O)N[C@@H](Cc1c[nH]cn1)C(=O)N[C@@H](Cc1ccc(O)cc1)C(=O)N[C@@H](Cc1ccc(O)cc1)C(=O)N[C@@H](CC(N)=O)C(=O)N[C@@H](Cc1c[nH]c2ccccc12)C(=O)N[C@@H](CC(C)C)C(=O)N[C@H](C(=O)N[C@@H](CCCNC(=N)N)C(=O)N[C@@H](CCC(N)=O)C(=O)N[C@@H](CCCNC(=N)N)C(=O)N[C@@H](Cc1ccc(O)cc1)C(N)=O)[C@@H](C)O)C(C)C) [Compound 11] | 0.334 | > 5000 | > 5000 | > 5000 | 0.74 |

Second part, the binder after the results:

| EC50 (HTRF cAMP Gi assay) [1] [nM] | EC50 (HTRF cAMP Gi assay) (human NPY4 receptor) [nM] | EC50 (HTRF cAMP Gi assay) (human NPY5 receptor) [nM] | EC50 (HTRF cAMP Gi assay) (human NPY1 receptor) [nM] | Ki [2] [nM] | Binder |
| --- | --- | --- | --- | --- | --- |
| – | > 5000 | > 5000 | > 5000 | – | Isovaleryl-APEK([AEEA-AEEA-γGlu-C18 diacid])PEEDATPEEIQRYYVSLRHYYNWLTRQRY-NH2 [Compound 171] |
| 0.159 | > 5000 | > 5000 | > 5000 | 3.22 | Isovaleryl-APEK([AEEA-AEEA-γGlu-C18 diacid])PEEEATPEELQRYYVSLRHYYNWLTRQRY-NH2 (SMILES CC(C)CC(=O)N[C@@H](C)C(=O)N1CCC[C@H]1C(=O)N[C@@H](CCC(=O)O)C(=O)N[C@@H](CCCCNC(=O)COCCOCCNC(=O)COCCOCCNC(=O)CC[C@H](NC(=O)CCCCCCCCCCCCCCCCC(=O)O)C(=O)O)C(=O)N1CCC[C@H]1C(=O)N[C@@H](CCC(=O)O)C(=O)N[C@@H](CCC(=O)O)C(=O)N[C@@H](CCC(=O)O)C(=O)N[C@@H](C)C(=O)N[C@H](C(=O)N1CCC[C@H]1C(=O)N[C@@H](CCC(=O)O)C(=O)N[C@@H](CCC(=O)O)C(=O)N[C@@H](CC(C)C)C(=O)N[C@@H](CCC(N)=O)C(=O)N[C@@H](CCCNC(=N)N)C(=O)N[C@@H](Cc1ccc(O)cc1)C(=O)N[C@@H](Cc1ccc(O)cc1)C(=O)N[C@H](C(=O)N[C@@H](CO)C(=O)N[C@@H](CC(C)C)C(=O)N[C@@H](CCCNC(=N)N)C(=O)N[C@@H](Cc1c[nH]cn1)C(=O)N[C@@H](Cc1ccc(O)cc1)C(=O)N[C@@H](Cc1ccc(O)cc1)C(=O)N[C@@H](CC(N)=O)C(=O)N[C@@H](Cc1c[nH]c2ccccc12)C(=O)N[C@@H](CC(C)C)C(=O)N[C@H](C(=O)N[C@@H](CCCNC(=N)N)C(=O)N[C@@H](CCC(N)=O)C(=O)N[C@@H](CCCNC(=N)N)C(=O)N[C@@H](Cc1ccc(O)cc1)C(N)=O)[C@@H](C)O)C(C)C)[C@@H](C)O) [Compound 41] |
